From patent US7244706 come the findings set out here.

For series [1], the target named is human lactoferrin (LF), intact, purified from human milk/colostrum (UniProt P02788).
Chain of human lactoferrin (LF), intact, purified from human milk/colostrum (P02788 20-710): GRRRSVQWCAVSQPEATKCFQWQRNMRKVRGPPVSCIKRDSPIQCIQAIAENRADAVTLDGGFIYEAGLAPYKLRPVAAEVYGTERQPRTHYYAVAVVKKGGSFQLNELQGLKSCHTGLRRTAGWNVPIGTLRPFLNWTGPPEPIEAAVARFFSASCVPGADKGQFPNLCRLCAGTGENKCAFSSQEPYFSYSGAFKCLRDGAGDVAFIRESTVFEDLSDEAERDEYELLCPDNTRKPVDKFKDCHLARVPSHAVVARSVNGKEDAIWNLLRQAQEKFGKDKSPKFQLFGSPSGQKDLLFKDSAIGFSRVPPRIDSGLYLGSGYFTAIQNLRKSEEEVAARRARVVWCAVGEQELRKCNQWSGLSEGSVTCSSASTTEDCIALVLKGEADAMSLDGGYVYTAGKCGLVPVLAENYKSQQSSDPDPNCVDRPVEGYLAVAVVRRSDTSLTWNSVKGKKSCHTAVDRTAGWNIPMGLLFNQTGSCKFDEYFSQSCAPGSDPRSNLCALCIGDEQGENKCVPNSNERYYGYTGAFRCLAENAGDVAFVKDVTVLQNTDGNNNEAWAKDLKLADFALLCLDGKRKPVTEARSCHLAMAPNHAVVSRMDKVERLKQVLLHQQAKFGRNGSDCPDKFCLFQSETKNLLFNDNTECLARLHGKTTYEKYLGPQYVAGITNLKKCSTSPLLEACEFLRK

Chain of bovine spleen cathepsin D (Sigma) (chain, as listed by the source): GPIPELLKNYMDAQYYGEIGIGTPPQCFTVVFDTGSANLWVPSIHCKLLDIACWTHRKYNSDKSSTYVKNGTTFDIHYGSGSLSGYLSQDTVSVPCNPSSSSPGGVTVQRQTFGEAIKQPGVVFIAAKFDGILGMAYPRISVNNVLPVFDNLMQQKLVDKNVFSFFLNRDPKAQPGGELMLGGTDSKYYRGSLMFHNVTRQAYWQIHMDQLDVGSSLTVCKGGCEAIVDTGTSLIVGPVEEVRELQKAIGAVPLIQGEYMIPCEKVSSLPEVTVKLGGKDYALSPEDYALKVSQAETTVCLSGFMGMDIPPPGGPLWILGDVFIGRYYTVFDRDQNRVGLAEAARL

On to bovine spleen cathepsin D (Sigma), for which the “proteolytic release of the N-terminal 6 kDa polypeptide, seen by immunoblot” value in series [1] is recorded as “Exposure of either iron-saturated or iron-free LF to even small amounts of cathepsin D ( 1/200th, w:w) for a period as brief as five minutes yielded the N-terminal 6 kDa polypeptide”. Moreover, the “loss of proteolytic release of the 6 kDa fragment from LF, seen by immunoblot” value in the series on pepstatin A was “incubations of LF performed in the absence of cathepsin D or in the presence of pepstatin A, an inhibitor of cathepsin D, failed to identify a 6 kDa fragment”.
